Experimental data: patent US20260258141A1 (BIOCYTOGEN PHARMACEUTICALS BEIJING, published 2026)

Tests used:
[1] = biological target: T1, human IGF1R (insulin-like growth factor 1 receptor) on cells (human, UniProt P08069 31-1367); experiment: cell-based or functional assay
[2] = biological target: T2, His-tagged human IGF1R protein (ACRO Biosystems Inc., Cat #: IGR-H5229) (human, UniProt P08069 31-932); experiment: SPR (Biacore 8K) on captured hIGF1R-His, binder injected second (Analyte 2); competitor injected first (Analyte 1): 10D1
T2 construct: Bought protein; also called hIGF1R-His; not shown: His tag
T2 sequence (P08069 31-932): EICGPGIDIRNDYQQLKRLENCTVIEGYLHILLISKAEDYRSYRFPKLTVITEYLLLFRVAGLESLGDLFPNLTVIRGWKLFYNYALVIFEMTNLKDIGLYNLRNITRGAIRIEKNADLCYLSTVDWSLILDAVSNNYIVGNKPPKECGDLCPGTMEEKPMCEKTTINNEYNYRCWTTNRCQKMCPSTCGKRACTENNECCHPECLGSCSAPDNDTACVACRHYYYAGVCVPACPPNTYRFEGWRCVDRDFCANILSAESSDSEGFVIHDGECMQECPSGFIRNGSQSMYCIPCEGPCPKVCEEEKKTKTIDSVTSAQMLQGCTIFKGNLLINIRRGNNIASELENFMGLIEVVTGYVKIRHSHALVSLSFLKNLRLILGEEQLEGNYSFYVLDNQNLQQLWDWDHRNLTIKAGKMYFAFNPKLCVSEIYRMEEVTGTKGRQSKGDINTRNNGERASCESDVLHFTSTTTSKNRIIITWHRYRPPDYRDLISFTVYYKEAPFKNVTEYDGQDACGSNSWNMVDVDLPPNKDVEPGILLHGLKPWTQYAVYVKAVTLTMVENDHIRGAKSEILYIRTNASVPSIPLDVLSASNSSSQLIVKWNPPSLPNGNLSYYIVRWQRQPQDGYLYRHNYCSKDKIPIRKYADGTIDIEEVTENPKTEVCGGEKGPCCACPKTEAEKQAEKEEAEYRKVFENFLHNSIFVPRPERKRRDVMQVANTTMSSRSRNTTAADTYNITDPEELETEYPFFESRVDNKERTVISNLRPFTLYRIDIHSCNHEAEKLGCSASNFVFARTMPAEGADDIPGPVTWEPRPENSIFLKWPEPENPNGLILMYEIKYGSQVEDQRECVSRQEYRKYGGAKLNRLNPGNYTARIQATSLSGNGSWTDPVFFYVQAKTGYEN
Method: (§1) Epitope binding assays were performed using Biacore™ 8K biosensor to determine whether two anti-IGF1R antibodies target the same or overlapping epitopes. 1×HBS-EP+ buffer (10 mM 4-(2-hydroxyethyl)-1-piperazineethanesulfonic acid (HEPES), 150 mM NaCl, 3 mM ethylenediaminetetraacetic acid (EDTA) and 0.05% P20, pH7.4) diluted from HBS-EP+buffer (10×) was used as the running buffer throughout the experiment. About 50 RU of hIGF1R-His was captured at a flow rate of 10 μL/min, and 200 nM of the tested antibody (Analyte 1) was injected at a flow rate of 30 uL/min to bind the ligand. Another comparison antibody (Analyte 2) was injected under the same conditions to determine whether the binding of different antibodies interfered with each other. The binding time was 180 s for each antibody.
(§2) The binding value of each antibody was obtained using Biacore Insight Evaluation (Version: 2.0.15.12933). To quantify the interference of one antibody binding to another, a binding ratio was calculated to compare each pair of antibodies. The binding ratio is defined as the binding value of the second antibody (Analyte 2) divided by the binding value of the first antibody (Analyte 1). The threshold to determine the block or non-block is 0.3.

[3] = biological target: T2, His-tagged human IGF1R protein (ACRO …); experiment: SPR (Biacore 8K) on captured hIGF1R-His, binder injected second (Analyte 2); competitor injected first (Analyte 1): 12D1
Method: as §1, §2

[4] = biological target: T1, human IGF1R (insulin-like growth factor …); experiment: cell-based or functional assay; remark: listed apart in the source
[5] = biological target: T2, His-tagged human IGF1R protein (ACRO …); experiment: SPR (Biacore 8K) on captured hIGF1R-His, binder injected second (Analyte 2); competitor injected first (Analyte 1): 12A4
Method: as §1, §2

[6] = biological target: His-tagged cynomolgus monkey IGF1R protein (ACRO Biosystems Inc., Cat #: IGR-C5225) (cynomolgus monkey); experiment: SPR (Biacore 8K), antibody captured on Protein A chip, antigen as analyte, 1:1 model
[7] = biological target: T2, His-tagged human IGF1R protein (ACRO …); experiment: SPR (Biacore 8K) on captured hIGF1R-His, binder injected second (Analyte 2); competitor injected first (Analyte 1): Teprotumumab analog
Method: as §1, §2

[8] = biological target: T3, human insulin receptor INSR on cells (human, UniProt P06213 28-1382); experiment: flow cytometry on CHO-S-hINSR cells, antibody 20 µg/mL
T3 construct: Expressed on CHO-S cells; also called hINSR; CHO-S-hINSR cells
T3 sequence (P06213 other isoform, or with tags, fused parts or gaps limits assumed): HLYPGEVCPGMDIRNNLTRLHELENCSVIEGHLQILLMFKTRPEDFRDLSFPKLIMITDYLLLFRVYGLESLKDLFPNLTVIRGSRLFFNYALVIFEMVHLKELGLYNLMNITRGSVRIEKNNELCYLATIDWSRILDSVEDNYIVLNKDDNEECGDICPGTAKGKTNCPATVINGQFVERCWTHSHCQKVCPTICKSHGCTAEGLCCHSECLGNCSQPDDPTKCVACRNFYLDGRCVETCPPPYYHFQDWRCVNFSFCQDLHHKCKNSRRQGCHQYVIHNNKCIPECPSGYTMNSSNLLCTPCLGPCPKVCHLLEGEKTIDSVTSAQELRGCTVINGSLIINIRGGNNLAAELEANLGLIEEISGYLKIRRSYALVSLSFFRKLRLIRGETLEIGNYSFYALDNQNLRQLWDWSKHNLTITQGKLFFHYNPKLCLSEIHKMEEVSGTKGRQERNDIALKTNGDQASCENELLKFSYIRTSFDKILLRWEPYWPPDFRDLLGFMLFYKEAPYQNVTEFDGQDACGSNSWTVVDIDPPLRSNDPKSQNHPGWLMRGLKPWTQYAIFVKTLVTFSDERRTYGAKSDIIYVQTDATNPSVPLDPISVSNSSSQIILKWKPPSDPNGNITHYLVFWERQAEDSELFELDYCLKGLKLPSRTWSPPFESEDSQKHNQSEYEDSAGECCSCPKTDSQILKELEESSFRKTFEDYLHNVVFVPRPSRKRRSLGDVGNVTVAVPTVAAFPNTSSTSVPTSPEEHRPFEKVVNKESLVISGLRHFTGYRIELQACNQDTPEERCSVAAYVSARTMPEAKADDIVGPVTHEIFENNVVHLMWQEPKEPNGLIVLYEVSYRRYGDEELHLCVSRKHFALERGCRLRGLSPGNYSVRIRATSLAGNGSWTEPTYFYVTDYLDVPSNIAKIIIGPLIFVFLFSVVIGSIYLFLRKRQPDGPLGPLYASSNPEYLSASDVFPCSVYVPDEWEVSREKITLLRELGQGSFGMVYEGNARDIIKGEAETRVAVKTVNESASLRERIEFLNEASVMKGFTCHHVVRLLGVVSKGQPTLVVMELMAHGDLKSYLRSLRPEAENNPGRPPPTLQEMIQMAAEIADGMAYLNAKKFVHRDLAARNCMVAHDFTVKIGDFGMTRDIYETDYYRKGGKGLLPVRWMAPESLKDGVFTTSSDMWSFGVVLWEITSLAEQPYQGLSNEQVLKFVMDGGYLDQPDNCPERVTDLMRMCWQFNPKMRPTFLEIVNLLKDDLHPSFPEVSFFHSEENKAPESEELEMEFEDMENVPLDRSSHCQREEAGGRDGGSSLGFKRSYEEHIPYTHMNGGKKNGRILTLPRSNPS
Method: (§3) INSR (insulin receptor) and IGF1R are both members of the superfamily of receptor tyrosine kinases (RTKs). The binding activity of anti-IGF1R antibodies to human IGF1R, human INSR and monkey IGF1R was verified by flow cytometry. Briefly, CHO-S-hIGF1R cells (expressing human IGF1R (SEQ ID NO: 45), CHO-S-fasIGF1R cells (expressing cynomolgus monkey IGF1R (SEQ ID NO: 46) and CHO-S-hINSR (expressing SEQ ID NO: 47) were plated in a 96-well plate at a density of 2×10⁵ cells/well respectively. Purified anti-IGF1R antibody with a concentration of 20 μg/mL was added to each well and was incubated at 4° C. for 30 minutes. Then, after one wash with PBS, the cells were incubated with the secondary antibody Alexa Fluor® 647 anti-human IgG Fcγ (Jackson ImmunoResearch Laboratories, Inc., Cat #: 109-606-170) at 4° C. for 15 minutes before flow cytometry analysis. Human IgG1 was used as ISO control.

[9] = biological target: T1, human IGF1R (insulin-like growth factor …); experiment: flow cytometry on CHO-S-hIGF1R cells, antibody 20 µg/mL
Method: as §3

[10] = biological target: T1, human IGF1R (insulin-like growth factor …); experiment: cell-based or functional assay; remark: listed apart in the source
[11] = biological target: T2, His-tagged human IGF1R protein (ACRO …); experiment: SPR (Biacore 8K), antibody captured on Protein A chip, antigen as analyte, 1:1 model
Method: The affinity of the anti-IGF1R antibodies to His-tagged human IGF1R protein (hIGF1R-His, ACRO Biosystems Inc., Cat #: IGR-H5229) and His-tagged cynomolgus monkey IGF1R protein (cIGF1R-His, ACRO Biosystems Inc., Cat #: IGR-C5225) were measured using surface plasmon resonance (SPR) using Biacore™ (Biacore, Inc., Piscataway N.J.) 8K biosensor equipped with pre-immobilized Protein A sensor chips.
Purified anti-IGF1R antibodies were captured on the Protein A chip (Series S Sensor Chip Protein A) for the detection. 1 μg/mL or 10 μg/mL purified anti-IGF1R antibodies was loaded at 10 μL/min to bind to a gradient concentration of recombinant hIGF1R-His or cIGF1R-His (400 nM, 200 nM, 100 nM, 50 nM, 25 nM, 12.5 nM, 6.25 nM, 3.125 nM). The flow rate was 30 μL/min, the binding and dissociation time were set to 180 s and 800 s or 1200 s, respectively. The chip was regenerated after the last injection of each titration with a glycine solution (pH 2.0) at 30 μL/min for 30 seconds.

[12] = biological target: T1, human IGF1R (insulin-like growth factor …); experiment: cell-based or functional assay; remark: listed apart in the source
[13] = biological target: T3, human insulin receptor INSR on cells; experiment: flow cytometry on CHO-S-hINSR cells
Method: as §3

T1 sequence (P08069 31-1367 limits assumed): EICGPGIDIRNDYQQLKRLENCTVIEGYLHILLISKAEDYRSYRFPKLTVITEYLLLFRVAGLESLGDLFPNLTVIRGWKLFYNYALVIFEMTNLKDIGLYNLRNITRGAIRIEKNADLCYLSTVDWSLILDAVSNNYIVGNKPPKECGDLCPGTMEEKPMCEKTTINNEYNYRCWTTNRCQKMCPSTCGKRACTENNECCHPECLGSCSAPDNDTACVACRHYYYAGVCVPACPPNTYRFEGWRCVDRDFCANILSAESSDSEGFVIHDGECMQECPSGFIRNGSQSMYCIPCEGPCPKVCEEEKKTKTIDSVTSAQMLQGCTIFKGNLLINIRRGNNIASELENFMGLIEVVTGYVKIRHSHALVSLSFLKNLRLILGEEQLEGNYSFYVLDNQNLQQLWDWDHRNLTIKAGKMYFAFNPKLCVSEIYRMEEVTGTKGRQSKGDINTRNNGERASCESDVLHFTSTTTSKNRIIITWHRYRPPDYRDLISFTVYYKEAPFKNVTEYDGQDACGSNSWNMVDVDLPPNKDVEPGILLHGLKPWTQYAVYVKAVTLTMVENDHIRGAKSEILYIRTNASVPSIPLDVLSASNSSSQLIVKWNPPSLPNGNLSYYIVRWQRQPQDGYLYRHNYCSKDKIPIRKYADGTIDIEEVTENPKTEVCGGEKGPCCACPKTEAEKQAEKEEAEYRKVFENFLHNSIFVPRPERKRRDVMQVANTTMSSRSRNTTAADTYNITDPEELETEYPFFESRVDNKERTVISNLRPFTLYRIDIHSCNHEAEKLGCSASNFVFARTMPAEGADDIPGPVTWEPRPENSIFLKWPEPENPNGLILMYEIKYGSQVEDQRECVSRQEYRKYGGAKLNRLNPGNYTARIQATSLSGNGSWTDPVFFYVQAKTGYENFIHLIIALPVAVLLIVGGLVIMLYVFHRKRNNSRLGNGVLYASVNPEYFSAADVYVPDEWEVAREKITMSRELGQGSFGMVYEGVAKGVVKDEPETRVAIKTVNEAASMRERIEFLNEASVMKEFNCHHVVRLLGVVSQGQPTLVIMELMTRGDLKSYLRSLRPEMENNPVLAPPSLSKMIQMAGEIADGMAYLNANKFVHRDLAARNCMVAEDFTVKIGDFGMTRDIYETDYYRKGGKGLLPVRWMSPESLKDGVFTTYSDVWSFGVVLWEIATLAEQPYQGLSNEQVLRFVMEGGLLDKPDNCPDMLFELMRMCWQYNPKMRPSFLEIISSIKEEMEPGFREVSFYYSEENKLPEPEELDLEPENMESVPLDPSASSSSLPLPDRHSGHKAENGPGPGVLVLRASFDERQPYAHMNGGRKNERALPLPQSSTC

| Binder | IC50 of inhibition of IGF-1-induced proliferation (NCI-H838 cells) [1] | Max inhibition (%) (10 µg/mL) of IGF-1-induced proliferation (NCI-H838 cells) [1] | binding ratio (Analyte 2 / Analyte 1) [2] | binding ratio (Analyte 2 / Analyte 1) [3] | IC50 of inhibition of IGF-1-induced OPN secretion (U2OS-TSHR cells) [4] | binding ratio (Analyte 2 / Analyte 1) [5] | Kd [6] | koff [6] | kon [6] | binding ratio (Analyte 2 / Analyte 1) [7] | Percentage of positive cells [8] | Percentage of positive cells [9] | EC50 of internalization (MFI of pHAb-labelled secondary Fab, NCI-H838 cells) [10] | Kd [11] | koff [11] | kon [11] | IC50 of inhibition of IGF1R phosphorylation (CHO-S-hIGF1R cells, IGF-1 added, phosphotyrosine IGF1R ELISA) [12] | binding result [13] |
| --- | --- | --- | --- | --- | --- | --- | --- | --- | --- | --- | --- | --- | --- | --- | --- | --- | --- | --- |
| anti-IGF1R antibody 12A4 (antibody, V domains shown) VH: EVQLVQSGGGEIRPGGSLRLSCAASGFTFADYGMSWVRQAPGEGLEWVSEIDWTGGSKLYADSVKGRFTISRDNAKNSLFLQMNSLRAEDTALYYCVRDRGAVSPKYYYYGMDVWGQGTTVTVSS VL: EIVLTQSPSSLSASVGDRVTITCRASQGIRNDLGWYQQKPGKAPKRLIYAASRLQSGVPSRFSGSGSGTDFTLTISSLQPEDFATYYCLQHNSYPYTFGQGTKLEIK | 0.045 nM | 105% | -0.05 | -0.02 | 0.068 nM | -0.01 | 0.568 nM | 1.05e-05 s⁻¹ | 18400 M⁻¹ s⁻¹ | 0.01 | 0.4% | 50.3% | 0.92 nM | 0.214 nM | 5.69e-06 s⁻¹ | 26600 M⁻¹ s⁻¹ | 0.9 nM | no binding (tested: 20 µg/mL) |
| anti-IGF1R antibody 10D1 (antibody, human IgG1, V domains shown) VH: QVQLQQSGGGVVRPGGSLRLSCAASGFTFADYGMSWVRQVPGKGLEWVSGINWNGGSTDYADSVKGRFTISRDNAKHSLYLQMNSLRAEDTAFYYCARDRGAVSRRYYYYGMDVWGLGTTVTVSS VL: AIQLTQSPSSLSASVGDRVTITCRASQDIRNDLGWYQLKPGKAPKRLIYAASRLQSGVPSGFSGSGSGTEFTLTISSLQPEDFATYYCLQHNSYPYTFGQGTKLEIK | 0.14 nM | 117% | -0.02 | 0.02 | 0.046 nM | 0.02 | 2.1 nM | 1.75e-05 s⁻¹ | 8360 M⁻¹ s⁻¹ | 0.03 | 1.5% | 36.5% | 0.51 nM | 1.63 nM | 1.26e-05 s⁻¹ | 7750 M⁻¹ s⁻¹ | 1.4 nM | no binding (tested: 20 µg/mL) |

More lines, in order of falling Kd [6], values ahead:

| IC50 of inhibition of IGF-1-induced proliferation (NCI-H838 cells) [1] | Max inhibition (%) (10 µg/mL) of IGF-1-induced proliferation (NCI-H838 cells) [1] | binding ratio (Analyte 2 / Analyte 1) [2] | binding ratio (Analyte 2 / Analyte 1) [3] | IC50 of inhibition of IGF-1-induced OPN secretion (U2OS-TSHR cells) [4] | binding ratio (Analyte 2 / Analyte 1) [5] | Kd [6] | koff [6] | kon [6] | binding ratio (Analyte 2 / Analyte 1) [7] | Percentage of positive cells [8] | Percentage of positive cells [9] | EC50 of internalization (MFI of pHAb-labelled secondary Fab, NCI-H838 cells) [10] | Kd [11] | koff [11] | kon [11] | IC50 of inhibition of IGF1R phosphorylation (CHO-S-hIGF1R cells, IGF-1 added, phosphotyrosine IGF1R ELISA) [12] | binding result [13] | Binder |
| --- | --- | --- | --- | --- | --- | --- | --- | --- | --- | --- | --- | --- | --- | --- | --- | --- | --- | --- |
| 0.091 nM | 88% | -0.04 | -0.02 | 0.13 nM | -0.03 | 8.57 nM | 0.000237 s⁻¹ | 27600 M⁻¹ s⁻¹ | -0.03 | 0.7% | 46.4% | 1.12 nM | 3.99 nM | 0.000162 s⁻¹ | 40700 M⁻¹ s⁻¹ | 1.2 nM | no binding (tested: 20 µg/mL) | anti-IGF1R antibody 10G1 (antibody, human IgG1, V domains shown) VH: QVQLVESGGGLVKPGGSLRLSCAASEFTFSDYYMSWIRQSPGKGLEWVSYISNSGSFTNYADSVKGRFTISRDNAKNSLYLQMNSLRAEDSAIYYCVRDQAPVTSKYYYYGMDVWGQGTTVTVSS VL: EIVLTQSPSSLSASVGDRVTITCRASQGIRNDFAWYQQKPGKAPKRLIYAASRLQRGVPSRFSGSGSGTEFTLTISSLQPEDFATYYCLQHNSYPYTFGQGTKLEIK |
| 0.064 nM | 145% | -0.04 | -0.01 | 0.096 nM | 0 | 2.79 nM | 1.8e-05 s⁻¹ | 6450 M⁻¹ s⁻¹ | 0.01 | 0.5% | 39.3% | 0.66 nM | 1.72 nM | 1.05e-05 s⁻¹ | 6120 M⁻¹ s⁻¹ | 1.3 nM | no binding (tested: 20 µg/mL) | anti-IGF1R antibody 12D1 (antibody, human IgG1, V domains shown) VH: QVQLVESGGGVVRPGGSLRLSCAASGFTFDDYGMSWVRQVPGKGLEWVSGINWNGGSTDYADSVKGRFTISREKAKNSLYLQMNSLRAEDTALYYCVRDRGAVTRRYYYYGMDVWGQGTTVTVSS VL: DIQMTQSPSSLSASVGDRVTITCRASQDIRNDLGWYQLKPGKAPKRLIYAASRLQSGVPSRFSGSGSGTEFTLTISSLQPEDFATYYCLQHNSYPYTFGQGTKLEIK |
